B1: TRIB1 (parent)
chain: EIGTSDQIVPEYQEDSDISSFFC

Variants of: B1
Assay: protein stability index of a GFP-peptide fusion (GPS, HEK-293T) (PSI 1-6); higher = more stable
Conditions: c terminus: native
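Further: lentivirally expressed fusions sorted by FACS into six bins by GFP to DsRed ratio, PSI derived from sequencing read proportions per bin multiplied by bin number.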

| Variant | protein stability index |
| --- | --- |
| EIGTSDQIWPEYQEDSDISSFFC [V9W] | 4.34 |
| EIGTSDQIQPEYQEDSDISSFFC [V9Q] | 5.78 |
| EIGTSDQIPPEYQEDSDISSFFC [V9P] | 5.38 |
| EIGTSDQITPEYQEDSDISSFFC [V9T] | 5.53 |
| EIGTSDQIRPEYQEDSDISSFFC [V9R] | 4.88 |
| EIGTSDQIIPEYQEDSDISSFFC [V9I] | 4.93 |
| EIGTSDQIGPEYQEDSDISSFFC [V9G] | 5.29 |
| EIGTSDQIKPEYQEDSDISSFFC [V9K] | 5.49 |
| EIGTSDQIAPEYQEDSDISSFFC [V9A] | 5.16 |
| EIGTSDQIVPEYYEDSDISSFFC [Q13Y] | 2.12 |
| EIGTSDQIVPEYWEDSDISSFFC [Q13W] | 1.72 |
| EIGTSDQIVPEYREDSDISSFFC [Q13R] | 2.92 |
| EIGTSDQIVPEYGEDSDISSFFC [Q13G] | 2.13 |
| EIGTSDQIVPEYTEDSDISSFFC [Q13T] | 1.97 |
| EIGTSDQIVPEYLEDSDISSFFC [Q13L] | 2.77 |
| EIGTSDQIVPEYMEDSDISSFFC [Q13M] | 2.36 |
| EIGTSDQIVPEYSEDSDISSFFC [Q13S] | 2.43 |
| EIGTSDQIVPEYKEDSDISSFFC [Q13K] | 3.39 |
| EIGTSDQIVPEYIEDSDISSFFC [Q13I] | 2.36 |
| EIGTSDQIVPEYFEDSDISSFFC [Q13F] | 1.81 |
| EIGTSDQIVPEYNEDSDISSFFC [Q13N] | 1.9 |
| EIGTSDQIVPEYVEDSDISSFFC [Q13V] | 2.52 |
| EIGTSDQIVPEYEEDSDISSFFC [Q13E] | 2.77 |
| EIGTSDQIVPEYHEDSDISSFFC [Q13H] | 2.24 |
| EIGTSDQIVPEYAEDSDISSFFC [Q13A] | 2.54 |

| Variant | protein stability index |
| --- | --- |
| EIGTSDQIVPEYPEDSDISSFFC [Q13P] | 3.5 |
| EIGTSDQIVPEYDEDSDISSFFC [Q13D] | 2.9 |
| EIGTSDQIVPEYCEDSDISSFFC [Q13C] | 2.59 |
| EIGTSDQIVPEYQEESDISSFFC [D15E] | 2.2 |
| EIGTSDQIVPEYQEMSDISSFFC [D15M] | 2.67 |
| EIGTSDQIVPEYQEKSDISSFFC [D15K] | 3.42 |
| EIGTSDQIVPEYQEGSDISSFFC [D15G] | 3.71 |
| EIGTSDQIVPEYQEHSDISSFFC [D15H] | 3.28 |
| EIGTSDQIVPEYQEFSDISSFFC [D15F] | 2.24 |
| EIGTSDQIVPEYQEPSDISSFFC [D15P] | 3.02 |
| EIGTSDQIVPEYQEISDISSFFC [D15I] | 2.28 |
| EIGTSDQIVPEYQELSDISSFFC [D15L] | 2.18 |
| EIGTSDQIVPEYQEASDISSFFC [D15A] | 3.59 |
| EIGTSDQIVPEYQENSDISSFFC [D15N] | 3.86 |
| EIGTSDQIVPEYQECSDISSFFC [D15C] | 2.62 |
| EIGTSDQKVPEYQEDSDISSFFC [I8K] | 4.03 |
| EIGTSDQNVPEYQEDSDISSFFC [I8N] | 5.32 |
| EIGTSDQYVPEYQEDSDISSFFC [I8Y] | 5.08 |
| EIGTSDQQVPEYQEDSDISSFFC [I8Q] | 3.93 |
| EIGTSDQCVPEYQEDSDISSFFC [I8C] | 3.62 |
| EIGTSDQMVPEYQEDSDISSFFC [I8M] | 3.54 |
| EIGTSDQSVPEYQEDSDISSFFC [I8S] | 5.18 |
| EIGTSDQGVPEYQEDSDISSFFC [I8G] | 4.66 |
| EIGTSDQEVPEYQEDSDISSFFC [I8E] | 4.19 |
| EIGTSDQAVPEYQEDSDISSFFC [I8A] | 4.82 |

| Variant | protein stability index |
| --- | --- |
| EIGTSDQHVPEYQEDSDISSFFC [I8H] | 5.15 |
| EIGTSDQDVPEYQEDSDISSFFC [I8D] | 5.12 |
| EIGTSDQFVPEYQEDSDISSFFC [I8F] | 5.17 |
| EIGTSDQVVPEYQEDSDISSFFC [I8V] | 2.07 |
| EIGTSDQTVPEYQEDSDISSFFC [I8T] | 4.29 |
| EIGTSDQPVPEYQEDSDISSFFC [I8P] | 5.36 |
| EIGTSDQWVPEYQEDSDISSFFC [I8W] | 4.69 |
| EIGTSDQLVPEYQEDSDISSFFC [I8L] | 4.11 |
| EIGTSDQRVPEYQEDSDISSFFC [I8R] | 3.56 |
| EIGTSDQIVPSYQEDSDISSFFC [E11S] | 3.1 |
| EIGTSDQIVPDYQEDSDISSFFC [E11D] | 2.18 |
| EIGTSDQIVPFYQEDSDISSFFC [E11F] | 3.63 |
| EIGTSDQIVPPYQEDSDISSFFC [E11P] | 3.5 |
| EIGTSDQIVPWYQEDSDISSFFC [E11W] | 4.16 |
| EIGTSDQIVPKYQEDSDISSFFC [E11K] | 4.4 |
| EIGTSDQIVPHYQEDSDISSFFC [E11H] | 3.79 |
| EIGTSDQIVPTYQEDSDISSFFC [E11T] | 2.77 |
| EIGTSDQIVPCYQEDSDISSFFC [E11C] | 2.61 |
| EIGTSDQIVPVYQEDSDISSFFC [E11V] | 2.52 |
| EIGTSDQIVPQYQEDSDISSFFC [E11Q] | 3.12 |
| EIGTSDQIVPAYQEDSDISSFFC [E11A] | 4.09 |
| EIGTSDQIVPYYQEDSDISSFFC [E11Y] | 3.46 |
| EIGTSDQIVPRYQEDSDISSFFC [E11R] | 3.68 |
| EIGTSDQIVPNYQEDSDISSFFC [E11N] | 3.08 |
| EIGTSDQIVPIYQEDSDISSFFC [E11I] | 3.43 |

| Variant | protein stability index |
| --- | --- |
| EIGTSDQIVPMYQEDSDISSFFC [E11M] | 3.43 |
| EIGTSDQIVPLYQEDSDISSFFC [E11L] | 4.33 |
| EIGTSDQIVPGYQEDSDISSFFC [E11G] | 2.25 |
| EIGTSFQIVPEYQEDSDISSFFC [D6F] | 4.14 |
| EIGTSHQIVPEYQEDSDISSFFC [D6H] | 4.9 |
| EIGTSRQIVPEYQEDSDISSFFC [D6R] | 5.04 |
| EIGTSQQIVPEYQEDSDISSFFC [D6Q] | 5.04 |
| EIGTSSQIVPEYQEDSDISSFFC [D6S] | 5.45 |
| EIGTSTQIVPEYQEDSDISSFFC [D6T] | 5.07 |
| EIGTSLQIVPEYQEDSDISSFFC [D6L] | 4.45 |
| EIGTSYQIVPEYQEDSDISSFFC [D6Y] | 4.65 |
| EIGTSAQIVPEYQEDSDISSFFC [D6A] | 4.92 |
| EIGTSMQIVPEYQEDSDISSFFC [D6M] | 4.3 |
| EIGTSCQIVPEYQEDSDISSFFC [D6C] | 4.7 |
| EIGTSEQIVPEYQEDSDISSFFC [D6E] | 4.77 |
| EIGTSNQIVPEYQEDSDISSFFC [D6N] | 4.69 |
| EIGTSGQIVPEYQEDSDISSFFC [D6G] | 5.55 |
| EIGTSPQIVPEYQEDSDISSFFC [D6P] | 4.84 |
| EIGTSIQIVPEYQEDSDISSFFC [D6I] | 4.07 |
| EIGTSKQIVPEYQEDSDISSFFC [D6K] | 5.18 |
| EIGTSVQIVPEYQEDSDISSFFC [D6V] | 4.57 |
| EIGTSWQIVPEYQEDSDISSFFC [D6W] | 4.11 |

From the supplement of paper PMC10567573
